B1: Peroxisome proliferator-activated receptor delta, residues 71 to 145; numbered along this chain, Q03181 (parent)
chain: NMECRVCGDKASGFHYGVHACEGCKGFFRRTIRMKLEYEKCERSCKIQKKNRNKCQYCRFQKCLALGMSHNAIRF

± gives the uncertainty stated by the source.

This data set covers variants of B1. Kind of data set: abundance fitness (aPCA) (normalised: wild type 0, dead -1); higher = more abundant; growth selection in yeast, the domain comes from the species named. The following applies: Homo sapiens.
Regarding NMECRVCGQKASGFHYGVHACEGCKGFFRRTIRMKLEYEKCERSCKIQKKNRNKCQYCRFQKCLALGMSHNAIRF, the abundance fitness is -0.374 ± 0.077.
For the variant NMECRVCGLKASGFHYGVHACEGCKGFFRRTIRMKLEYEKCERSCKIQKKNRNKCQYCRFQKCLALGMSHNAIRF, the abundance fitness is -0.63 ± 0.072.
Then NMECRVCGKKASGFHYGVHACEGCKGFFRRTIRMKLEYEKCERSCKIQKKNRNKCQYCRFQKCLALGMSHNAIRF, with -0.548 ± 0.12; and NMECRVCGHKASGFHYGVHACEGCKGFFRRTIRMKLEYEKCERSCKIQKKNRNKCQYCRFQKCLALGMSHNAIRF, with -0.668 ± 0.2; and NMECRVCGDKTSGFHYGVHACEGCKGFFRRTIRMKLEYEKCERSCKIQKKNRNKCQYCRFQKCLALGMSHNAIRF, with -0.147 ± 0.052.
Then NMECRVCGDKPSGFHYGVHACEGCKGFFRRTIRMKLEYEKCERSCKIQKKNRNKCQYCRFQKCLALGMSHNAIRF, with -0.197 ± 0.065; and NMECRVCGDKYSGFHYGVHACEGCKGFFRRTIRMKLEYEKCERSCKIQKKNRNKCQYCRFQKCLALGMSHNAIRF, with -0.31 ± 0.083; and NMECRVCGDKISGFHYGVHACEGCKGFFRRTIRMKLEYEKCERSCKIQKKNRNKCQYCRFQKCLALGMSHNAIRF, with -0.154 ± 0.083.
Then NMECRVCGDKQSGFHYGVHACEGCKGFFRRTIRMKLEYEKCERSCKIQKKNRNKCQYCRFQKCLALGMSHNAIRF, with -0.546 ± 0.096.
Regarding NMECRVCGDKFSGFHYGVHACEGCKGFFRRTIRMKLEYEKCERSCKIQKKNRNKCQYCRFQKCLALGMSHNAIRF, the abundance fitness is -0.228 ± 0.085.
As to NMECRVCGDKMSGFHYGVHACEGCKGFFRRTIRMKLEYEKCERSCKIQKKNRNKCQYCRFQKCLALGMSHNAIRF, the abundance fitness is -0.337 ± 0.069.
Then NMECRVCGDKKSGFHYGVHACEGCKGFFRRTIRMKLEYEKCERSCKIQKKNRNKCQYCRFQKCLALGMSHNAIRF, with -0.482 ± 0.091; and NMECRVCGDKHSGFHYGVHACEGCKGFFRRTIRMKLEYEKCERSCKIQKKNRNKCQYCRFQKCLALGMSHNAIRF, with -0.218 ± 0.1.
Take NMECRVCGDKRSGFHYGVHACEGCKGFFRRTIRMKLEYEKCERSCKIQKKNRNKCQYCRFQKCLALGMSHNAIRF: the abundance fitness is -0.485 ± 0.049.
Then NMECRVCGDKCSGFHYGVHACEGCKGFFRRTIRMKLEYEKCERSCKIQKKNRNKCQYCRFQKCLALGMSHNAIRF, with -0.367 ± 0.075; and NMECRVCGDKSSGFHYGVHACEGCKGFFRRTIRMKLEYEKCERSCKIQKKNRNKCQYCRFQKCLALGMSHNAIRF, with -0.091 ± 0.045.
As for NMECRVCGDKWSGFHYGVHACEGCKGFFRRTIRMKLEYEKCERSCKIQKKNRNKCQYCRFQKCLALGMSHNAIRF, the abundance fitness was -0.706 ± 0.092.
Then NMECRVCGDKDSGFHYGVHACEGCKGFFRRTIRMKLEYEKCERSCKIQKKNRNKCQYCRFQKCLALGMSHNAIRF, with -0.237 ± 0.077; and NMECRVCGDKGSGFHYGVHACEGCKGFFRRTIRMKLEYEKCERSCKIQKKNRNKCQYCRFQKCLALGMSHNAIRF, with -0.232 ± 0.036; and NMECRVCGDKLSGFHYGVHACEGCKGFFRRTIRMKLEYEKCERSCKIQKKNRNKCQYCRFQKCLALGMSHNAIRF, with -0.338 ± 0.048.
Consider NMECRVCGDKVSGFHYGVHACEGCKGFFRRTIRMKLEYEKCERSCKIQKKNRNKCQYCRFQKCLALGMSHNAIRF, for which the abundance fitness is -0.306 ± 0.05.
Then NMECRVCGDDASGFHYGVHACEGCKGFFRRTIRMKLEYEKCERSCKIQKKNRNKCQYCRFQKCLALGMSHNAIRF, with -0.01 ± 0.059.
NMECRVCGDGASGFHYGVHACEGCKGFFRRTIRMKLEYEKCERSCKIQKKNRNKCQYCRFQKCLALGMSHNAIRF: the abundance fitness is -0.191 ± 0.035.
Then NMECRVCGDFASGFHYGVHACEGCKGFFRRTIRMKLEYEKCERSCKIQKKNRNKCQYCRFQKCLALGMSHNAIRF, with -0.283 ± 0.11.
Turning to NMECRVCGDIASGFHYGVHACEGCKGFFRRTIRMKLEYEKCERSCKIQKKNRNKCQYCRFQKCLALGMSHNAIRF, the abundance fitness is -0.052 ± 0.071.
Then NMECRVCGDCASGFHYGVHACEGCKGFFRRTIRMKLEYEKCERSCKIQKKNRNKCQYCRFQKCLALGMSHNAIRF, with -0.336 ± 0.074; and NMECRVCGDEASGFHYGVHACEGCKGFFRRTIRMKLEYEKCERSCKIQKKNRNKCQYCRFQKCLALGMSHNAIRF, with 0.007 ± 0.039; and NMECRVCGDNASGFHYGVHACEGCKGFFRRTIRMKLEYEKCERSCKIQKKNRNKCQYCRFQKCLALGMSHNAIRF, with -0.075 ± 0.08.
For NMECRVCGDQASGFHYGVHACEGCKGFFRRTIRMKLEYEKCERSCKIQKKNRNKCQYCRFQKCLALGMSHNAIRF, the abundance fitness is 0.08 ± 0.045.
Then NMECRVCGDMASGFHYGVHACEGCKGFFRRTIRMKLEYEKCERSCKIQKKNRNKCQYCRFQKCLALGMSHNAIRF, with -0.107 ± 0.059; and NMECRVCGDLASGFHYGVHACEGCKGFFRRTIRMKLEYEKCERSCKIQKKNRNKCQYCRFQKCLALGMSHNAIRF, with -0.018 ± 0.039.
As for NMECRVCGDWASGFHYGVHACEGCKGFFRRTIRMKLEYEKCERSCKIQKKNRNKCQYCRFQKCLALGMSHNAIRF, the abundance fitness is -0.206 ± 0.053.
Then NMECRVCGDPASGFHYGVHACEGCKGFFRRTIRMKLEYEKCERSCKIQKKNRNKCQYCRFQKCLALGMSHNAIRF, with -0.268 ± 0.057.
Then NMECRVCGDHASGFHYGVHACEGCKGFFRRTIRMKLEYEKCERSCKIQKKNRNKCQYCRFQKCLALGMSHNAIRF, with -0.027 ± 0.094.
Regarding NMECRVCGDAASGFHYGVHACEGCKGFFRRTIRMKLEYEKCERSCKIQKKNRNKCQYCRFQKCLALGMSHNAIRF, the abundance fitness was -0.002 ± 0.041.
Then NMECRVCGDVASGFHYGVHACEGCKGFFRRTIRMKLEYEKCERSCKIQKKNRNKCQYCRFQKCLALGMSHNAIRF, with 0 ± 0.038.
With NMECRVCGDSASGFHYGVHACEGCKGFFRRTIRMKLEYEKCERSCKIQKKNRNKCQYCRFQKCLALGMSHNAIRF, the abundance fitness was -0.106 ± 0.038.
